B1: 829 (protein, listed as Pseudonocardia sp.)
chain: MATVDEDLLTTLIARLDLDAKVRLLTGADFWSTPAEPAIGLRRMVLSDGPSGVRGESFDERSPSLSLPSSTALGATWDPELARRYGSTLGAEARRQHADVVLGPTINLHRTPFGGRHFEALSEDPLLTGELAAAYVEGLQAHGVAATPKHYVANDAESERFTVDNVVGERALHELYLAAFEPAVTRGGAWAVMSAYNAVNGATMSENPLLTEPLTGEWGFDGLVMSDWGAVRTTVASARAEQHLVMPGPVSTWGERLVAAVRGGEVDESVVDGKLRRLLRLAARVGALDGGPTPPPAPAPGDGATVARELAAAGSVLVRNTGELPWDASALGTVAVLGHNAALARTQGGGSATVRPAAVVAPLDGLRTALGGDRVRYRLGAQVAEGVQPFDPETVTDPVTGEPGLRAVFRAADGTALRSEHRLGASLIWMSGEIPGGAETVEVSTRWSPEPGAHRIGAAAVGHVTVSADGATVLDTEAVLTGDEGPGAAIFEAPSATAEITTDAPVDLVFRFRPSGGEAGMALFALTVGTETVVADPRAEVAAAASLAADCDVAVVVVGTNDRIESEGFDRTSLALPGHQDDLVRAVAAANPRTVVVVNSGAPVLLPWRDEVAAVLLGWFGGERFGDAVADVLLGHAEPGGRLPTTWPATGEERSVLSGRPTDGVLRYDEGVHLGHRNWLRHGETPAYPFGHGLGYTTWTLDDAVAGPWSADGVAVTVTLTNTGDRAGRQVVQAYLSRTGSDVERPARWLAGWAVVDAAPGTTTATVTVSRRAFRHRAGGVWATEPGTYELHLGFSVADTPLHATVEVVGEG
B2: 873 (protein, listed as Bifidobacterium longum)
chain: MSESTYPSVKDLTLEEKASLTSGGDAWHLQGVEAKGIPGYMITDGPHGLRKSLTSSTGETDLDNSVPATCFPPAAGLSSSWNPELIHKVGEAMAEECIQEKVAVILGPGVNIKRNPLGGRCFEYWSEDPYLAGHEAIGIVAGVQSKGVGTSLKHFAANNQETDRLRVDARISQRALREIYLPAFEHIVKTAQPWTIMCSYNRINGVHSAQNHWLLTDVLRDEWGFEGIVMSDWGADHDRVASLNAGLNLEMPPSYTDDQIVYAARDGRIAPAQLDRMAQGMIDLINKARAAMSIDGYRFDVDAHDEVAHQAAIESIVLLKNDDAILPLNADPAAARKIAVIGEFARTPRYQGGGSSHITPTKMTSFLDTLAERGIKADFAPGFTLDMESADPALESEAVETAKNADVVLMFLGLPEAAESEGFDRDTLDMPAKQIALLEQVAAANKNVVVVLSNGSVITVAPWAKNAKGILESWLLGQSGGPALADVIFGQVSPSGKLAQSIPLDINDDPSMLNWPGEEGHVDYGEGVFVGYRYYDTYGKVVDYPFGYGLSYATFEIADVAAAKTGANTATVTATVTNTSDVDASETVQVYVAPGKADVARPKHELKGFTKVFLKAGESKTVTIDLDERAFAYWSEKYNDWHVESGEYAIEVGTSSRDIAETVTVALDGDGKTQPLTEWSTYGEWEADPFGAKIVAAVAAAGEAGELLKLPDNAMMRMFLNSMPINSLPTLLGEGGKKIAQFMLDEYAKLSK
B3: 838 (protein)
chain: MSEHTYPSVKDLTLEEKASLTSGGDAWHLQGVEAKGIPGYMITDGPHGLRKSLATSTGETDLDDSVPATCFPPAAGLSSSWNPSLVRKVGEAMGEECIQEKVAVILGPGVNIKRNPLGGRCFEYWSEDPYLAGHEAVGIVEGVQSKGVGTSLKHFAVNNQETDRLRVDARVSQRALREIYLPAFEHIVKTAQPWTIMCSYNRVNGVHSAQNRWLLTDVLRDEWGFKGIVMSDWGADHDRVASVNAGLNLEMPPSGTDDEIVYAARDGRIDPAQLDRMAQGMIDLTDKARAAMSIDGYRFDVDAHDEVAHQAAVESMVLLKNEDAILPLKKDAKIAVIGEFARTPRYQGGGSSHITPTKMTSFLDTLAERGIKADFAPGFTLDLDPADSALELEAVETARDADVALLFLGLPEAAESEGFDRETLDMPAKQIELLAKVAAVNPNVAVVLSNGSVVSVAPWAGNAKGILESWLLGQAGGPALADVIFGEASPSGKLAQSIPLDINDDPSMLNWPGEEGHVDYGEGVFVGYRYYDTYDVAVDYPFGYGLSYASFEISDVHAEKTGANTASVTATVANVSDVDGAETVQVYVAPGKAEVARPSHELKGFAKVFLKAGESKTVTFDLDGRAFAYWSEKYGDWHIEAGAYGIEVGTSSRDIAATATVELEGDGKSLPLDEWSTYGEWEADPVGARVVAAVEAAGESGTLPKLPDNTMMRIFLKSMPINSMPMLMSDGGRRITAFMLDEYAKLTK
modifications: Bifidobacterium stellenboschense
B4: 828 (protein, listed as Bifidobacterium pseudocatenulatum)
chain: MSEKTYPSINDLTLEEKASLTSGGDAWHLQGVEAKGIPGYMITDGPHGLRKSNSATTGEVDLNNCVPATCFPPAAGLSSSWNPELIHQVGEAMAEECIQEKVAVILGPGVNIKRNPLGGRCFEYWSEDPYLAGHEAIGIVAGVQSKGVGTSLKHFAANNQETDRLRISANISQRALREIYFPAFEHIVKEAQPWTIMCAYNCINGVHAAQDHWLLTDVLRDEWGFQGIVMSDWGADHDRVASLNAGLNLEMPPSYTDDQIVYAARDGRIQPAQLDHMAQGMIDLVNKTRAAMSIENYRFDIEAHDEVAHQAAIESMVLLKNDDAILPIAGDAKVTVIGEFARTPRYQGGGSSHITPTKMTSFLDTLTERGVDAKFAPGFTLDLEPADPALEAEAVDAAKGADVVLMFLGLPEAAESEGFDRETLDMPAKQIALLEAVAAENKNVVVVLSNGSVVTVAPWAKNAKGILESWLLGQSGGPALADVLFGKVSPSGKLAQTIPFDINDDPSTINWPGEEGHVDYGEGVFVGYRYYDTYNKAVDYPFGFGLSYATFEVSDVKAVKTGACTASVSAVVKNTSNVDAAETVQVYVAPGKADVVRPKHELKGFKKVFLKAGESAEVSFELDDRAFAYWSERFNDWHVESGEYTIEVGTSSRDIAGSAVVELDGDGKAQPLTEWSNFMEWRKDPLGSKVLEILRAEGEAGRMPVVPDNDMTRLFLDSMPINSMSVLMGADGKQIFEYMLEKYAELTK
B5: 808 (protein, listed as Microbacterium lemovicicum)
chain: MTTESTVATSDATSHLLPLLAQLTLAQKAAFVQGADFWATVPLPEIGVRSMTLSDGPAGVRGPRWDEREPSLNLPSGSALAASWDIDLAYRYGAAAASEARRKGVDVVLGPTINLHRSPLGGRHFECFSEDPELTAELGAAYVRGLQDNGVAATPKHYVANDSETDRFTVDVRVDERALRELYLAPFERAVEAGTWSVMSAYNSVDGVTMTENDLLETPLNSEWGFDGVVVSDWTAVRSLDAVAASQDLAMPGPAPAWADLVAAVEDGRVSEADLDRKVLRMLLLAERVGALEGAPGIEPAPVDGVAFTREAAVEGTVLLTNDGTLPLDAAALRSVAVIGHNALEARTQGGGSATVLPEHVVSPLEGLRTALPDAAVSYEIGAVVQEGVAELPLEQLQNTVTGEPGLRVSFFDADGLELFTEDRRSTALVWFGGDAPIAASSSVVLETVYTPAETGEIQLGFAGANPGRVSIDGVEVLAETPLIEGTDLGAAFLNPPSSTAAVRAEAGRPLRLRAEFALSSGGPLAGALSVTLGIAPETTDPDELIARAAAAAASADVAVVVVGTNSKVESEGYDRVDLDLPGRQDDLVRAVAATGTPTIVVVNAGSPVVLPWAGEVAAVVQGYFGGQEFGSAVAAVLTGAAEPGGRLPTTWPAALADVPVTDVAPQDGVLAYTEGIHIGYRAWLRADAAPAFPFGHGLGYTTWSWGAVQRDGDALDVTLANTGARAGKQVVQVYAERADSTVERPVRWLVGFATVRAEAGQTVTATIPLPARRFAHWSDGWQVEGGAFTLRAGASVADLPLTMEWSIGD
B6: 870 (protein)
chain: MTEQTHTKAKDLDLQEEASLTSGSDSWHLQGLPDKGYEGYMITDGPYGLRKATGSDVYGSVPATCFPPTAGLASSWNPDLTYQVGQAMGEECIQEKVAVILGPGINIKRSPLGGRNFEFYSEDPVLAGHEAAGLVEGVQSKGVGTSLKHFAANNQETDRLRVSSDVDVRTLREIYLPAFEYVVKNAKPWTIMCAYNKVNGVFSSENRWLLTDVLRGEWGYQGMVMSDWGAVHNRVDALQAGLNLEMPPSRTDDQVVQAVQAGKLDKEQLDRMAQGILDLIDKARPAMSQQGYRYDVQEHNDMARRAAQESIVLLRNEDRILPLDPQKKVAVIGEFARTPRYQGGGSSHITPTEVSSALDGFKEAGMNVDFAPGFTLDEKEQDPALTRQALEVARGADTVVLFLGLPEYAESEGFDRTSMDLPEKQVALLKAVSEVNDRVVAVLSNGAVVTVADWMDKTKGLLETWLLGQEGGRAVVDVLTGAATPSGHLPETIPVRLEDNPTITSFPGEEGHSRYGEGVYVGYRYYDTFQRPVAFPFGFGLSYADFALDQVAVTKTGASSARVEVTVTNTSQVDGAQTVQVYVAPCASRVNRPSHELKAFTKVFLKAGQSSRVSMDLTERDFAYWSTAMDAWHVEAGTYRIQVGTSSRDLVAEEDLQVDGDGRFIPLNAESTMAEWRENSIGGPIMRDRIDQDGIPLPDDPNTAQLFDTMPLASVITLSGGDGNGIVADMVDRYHQALKQQGRDS
modifications: Bifidobacterium asteroides

Experiments:
Assay type in all cases: biochemical, Quillaja saponaria
[1] = Experiment 5-1: screening of additional glucosidases for deglycosylation with purified QS-18 (0.04 mg/ml) at pH 7.5 and 30 deg C; conditions: pH 7.5, 30 degrees C, 18 hours, LCMS/MS
Method: The 94 additional genes, together with positive control (DNA encoding SEQ ID No. 262) and negative control, were transformed, expressed, lysed and reacted in the same manner as described above for Experiment 4-1, except the reaction was incubated at 30 degrees C. for 18 hours.
Samples were analysed by LCMS/MS according to the procedure in Experiment 4-1.

[2] = Experiment 5-3: screening of additional glucosidases for deglycosylation with QS-18 in treated bark extract (80%) at pH 6 and 35 deg C; conditions: TBE 80% (QS-21 approx. 4 g/L), pH 6, 35 deg C; UV HPLC
Method: Experiment 5-1 was repeated, replacing CBE with Treated Bark Extract (TBE) at pH 6. TBE was prepared from CBE by PVPP treatment and concentration, to provide TBE with a QS-21 concentration of approximately 4 g/L. TBE was adjusted to pH 6 by dropwise addition of 2M NaOH with stirring.

[3] = Experiment 5-2: screening of additional glucosidases for deglycosylation with QS-18 in crude bark extract (80%) at pH 6 and 35 deg C; conditions: CBE 80%, pH 6, 35 deg C, 18 hours; UV HPLC
Method: A plate was lysed at pH 6 as described in Experiment 4-2. 40 uL of clarified lysate was transferred to a reaction plate
The pH of CBE was adjusted to pH 6 by dropwise addition of 2M NaOH with stirring. 160 uL of pH 6 CBE was added to each well of the reaction plate. The reaction plate was sealed and incubated at 35 deg C. with shaking for 18 hours.
The reaction plate was quenched by adding 200 uL of MeCN (2% acetic acid (AcOH), 1 mg/mL hexanophenone) to each well of the plates. The quenched reaction plate was re-sealed and incubated at 20 deg C. with shaking for 10 min. The reaction plate was then centrifuged (10 min, 4 degC).
200 uL was transferred from each well of the quenched plate to the corresponding wells of a fresh 96 well plate and sealed. The plate was analysed by UV HPLC with the method of Experiment 4-4.

Row | Molecule | Experiment 5-1 % conv [1] [%] | Experiment 5-3 % conv [2] [%] | Experiment 5-2 % conv [3] [%]
1 | B1 | 52.3 | <0.5 | <0.5
2 | B2 | 43.9 | <0.5 | <0.5
3 | B3 | 53.4 | <0.5 | <0.5
4 | B4 | 50.7 | <0.5 | <0.5
5 | B5 | 52.0 | <0.5 | <0.5
6 | B6 | 49.7 | <0.5 | <0.5

Reference: patent US20240026407A1, “MODIFICATION OF SAPONINS” (GLAXOSMITHKLINE BIOLOGICALS SA, priority 2020, published 2024)
